Laboratory results taken from patent US20240287172A1 (SCIRHOM, published 2024).
Positions count from the first letter of the chain named.

B1: antibody 48 (antibody, V domains shown)
VH: QVQLQQSGTELVRPGTSVKVSCKASGYAFTNYLIEWVKQRPGQGLEWIGVINPGSGFTKYNEKFKGKATLTADKSSSTVYMHLSSLTSEDSAVYFCARGLYRAMDYWGQGTSVTVSS
VL: DIQMTQSPASQSASLGESVTITCLASQTIATWLAWYQQKPGKSPQLLIYGATTLADGVPSRFSGGGSGTKFSFKISSLQAEDFVSYYCQQLYSTPYTFGGGTKLEIK
notes: mouse IgG, kappa light chain; also called clone #48; purified antibody 48
B2: antibody 47 (antibody, V domains shown)
VH: B1 VH with T9A, K59N, T69I, T71N, V79A, H82Q, S84I, G99D, Y101K, Y106H
VL: B1 VL with A30G, Y49H, G50A, T53S, G65S, L91I, T94S
notes: mouse IgG, kappa light chain; also called clone #47
B3: antibody 51 (antibody, V domains shown)
VH: QVQLQQSGAELVKPGASVKISCKASGYTFSNYWMNWVKQRPGKGLEWIGQIYPGDGDTKYNGKFKNKATLTADKSSSTAYMQFSSLTSEDSAVYFCARGDLVFVYWGLGTLVTVSA
VL: DVQITQSPSYLAVSPGETITINCRASKNIRKYLAWYQEKPGKTNKLLIYSGSTSQSGVPSRFSGSGSGTDFTLTISSLEPEDFAMYYCQQHNEYPYTFGGGTKLEIK
notes: mouse IgG, kappa light chain; also called clone #51

Assays:
miR2-FL-WT-T7 = molecular target: T1, miR2-FL-WT-T7 (mouse, UniProt Q80WQ6 1-827); assay: FACS, MEF-DKO-miR2-FL-WT-T7 cells
T1 construct: on MEF-DKO cells
T1 sequence: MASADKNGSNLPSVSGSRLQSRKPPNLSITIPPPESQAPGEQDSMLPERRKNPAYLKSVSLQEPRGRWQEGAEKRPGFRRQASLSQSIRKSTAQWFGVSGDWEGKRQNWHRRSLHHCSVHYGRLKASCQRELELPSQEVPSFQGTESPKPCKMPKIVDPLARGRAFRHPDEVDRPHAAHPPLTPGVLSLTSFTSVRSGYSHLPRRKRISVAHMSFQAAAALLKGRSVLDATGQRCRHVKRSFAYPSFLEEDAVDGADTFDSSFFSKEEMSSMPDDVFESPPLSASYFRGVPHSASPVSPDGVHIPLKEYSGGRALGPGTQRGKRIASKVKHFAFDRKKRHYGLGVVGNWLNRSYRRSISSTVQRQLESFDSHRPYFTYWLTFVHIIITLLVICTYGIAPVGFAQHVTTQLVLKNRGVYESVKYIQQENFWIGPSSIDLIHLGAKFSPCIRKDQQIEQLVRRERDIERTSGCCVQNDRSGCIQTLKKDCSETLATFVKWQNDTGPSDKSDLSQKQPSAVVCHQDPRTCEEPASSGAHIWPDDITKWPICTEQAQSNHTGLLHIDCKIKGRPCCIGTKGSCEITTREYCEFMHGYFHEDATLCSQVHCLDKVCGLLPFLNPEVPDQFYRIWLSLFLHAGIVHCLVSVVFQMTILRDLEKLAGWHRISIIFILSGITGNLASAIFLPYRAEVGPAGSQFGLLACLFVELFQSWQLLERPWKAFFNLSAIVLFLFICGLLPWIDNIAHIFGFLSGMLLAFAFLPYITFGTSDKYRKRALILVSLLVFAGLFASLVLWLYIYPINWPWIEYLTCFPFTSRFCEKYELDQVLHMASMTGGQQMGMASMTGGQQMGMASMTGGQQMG
Protocol: In brief, immortalized MEF-DKO-EV control cells, MEF-DKO-hiR2-FL-WT-T7 cells and MEF-DKO-miR2-FL-WT-T7 cells were harvested with 10 mM EDTA in PBS, washed and resuspended in FACS buffer (PBS, 3% FBS, 0.05% sodium azide), and seeded in Nunc U-bottom 96-well plates (Thermo Fisher Scientific, USA) at approximately 3×10⁵ cells per well. To pellet cells and remove supernatants, the plates were centrifuged at 1,500 rpm and 4° C. for 3 minutes. For primary staining, cells were resuspended in 100 μl per well of either FACS buffer alone (controls), mouse monoclonal anti-T7 IgG (Merck Millipore, USA) at 3 μg/ml FACS buffer or the purified antibodies 3, 5, 16, 22, 34, 42, 43, 44, 48, and 50 of the invention also at 3 μg/ml FACS buffer and incubated on ice for 1 hour. Afterwards, plates were centrifuged at 1,500 rpm and 4° C. for 3 minutes and washed twice with 200 μl per well of FACS buffer. For secondary staining, cells were spun down and resuspended in 100 μl per well of PE-conjugated goat anti-mouse IgG F(ab′)2 detection fragment (Dianova, Germany) diluted 1:100 in FACS buffer. Protected from light, the cell suspensions were incubated on ice for 1 hour. […] Finally, cells were resuspended in 150 μl per well of FACS buffer and analyzed using a BD Accuri™ C6 Plus flow cytometer (Becton Dickinson, Germany).

hiR2-FL-WT-FLAG = molecular target: T2, hiR2-FL-WT-FLAG (human, UniProt Q6PJF5 1-856); assay: FACS, MEF-DKO-hiR2-FL-WT-FLAG cells, 3 µg/ml
T2 construct: on MEF-DKO cells
T2 sequence: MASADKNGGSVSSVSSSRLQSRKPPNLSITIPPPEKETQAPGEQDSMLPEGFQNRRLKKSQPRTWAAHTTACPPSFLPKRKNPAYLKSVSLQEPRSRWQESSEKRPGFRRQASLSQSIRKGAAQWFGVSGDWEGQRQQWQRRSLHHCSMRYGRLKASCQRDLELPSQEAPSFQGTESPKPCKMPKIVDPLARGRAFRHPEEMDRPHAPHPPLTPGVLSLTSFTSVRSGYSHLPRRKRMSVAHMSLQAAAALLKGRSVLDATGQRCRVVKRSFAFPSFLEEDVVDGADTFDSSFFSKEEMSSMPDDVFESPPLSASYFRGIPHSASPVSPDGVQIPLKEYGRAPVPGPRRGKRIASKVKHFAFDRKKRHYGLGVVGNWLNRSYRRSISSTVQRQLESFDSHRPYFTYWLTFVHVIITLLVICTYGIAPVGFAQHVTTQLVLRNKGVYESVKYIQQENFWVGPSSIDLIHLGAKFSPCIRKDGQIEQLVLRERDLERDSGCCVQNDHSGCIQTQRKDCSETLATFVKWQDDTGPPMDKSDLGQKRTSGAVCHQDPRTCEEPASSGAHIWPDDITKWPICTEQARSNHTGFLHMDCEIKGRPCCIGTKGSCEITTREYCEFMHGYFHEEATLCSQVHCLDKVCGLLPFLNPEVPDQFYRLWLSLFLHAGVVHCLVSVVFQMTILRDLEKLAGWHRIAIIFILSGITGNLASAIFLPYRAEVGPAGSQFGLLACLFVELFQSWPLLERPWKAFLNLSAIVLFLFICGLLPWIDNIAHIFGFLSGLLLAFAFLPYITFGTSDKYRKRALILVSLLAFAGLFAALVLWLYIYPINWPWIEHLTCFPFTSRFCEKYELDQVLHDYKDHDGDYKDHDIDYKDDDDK
Protocol: In brief, immortalized MEF-DKO-EV control cells, MEF-DKO-hiR2-FL-WT-FLAG cells and MEF-DKO-miR2-FL-WT-FLAG cells were harvested with 10 mM EDTA in PBS, washed and resuspended in FACS buffer (PBS, 3% FBS, 0.05% sodium azide), and seeded in Nunc U-bottom 96-well plates (Thermo Fisher Scientific, USA) at approximately 3×10⁵ cells per well. To pellet cells and remove supernatants, the plates were centrifuged at 1,500 rpm and 4° C. for 3 minutes. For primary staining, cells were resuspended in 100 μl per well of either FACS buffer alone (controls), mouse monoclonal anti-FLAG IgG (Sigma-Aldrich, USA) at 3 μg/ml FACS buffer or the antibodies of the invention also at 3 μg/ml FACS buffer and incubated on ice for 1 hour. Afterwards, plates were centrifuged at 1,500 rpm and 4° C. for 3 minutes and washed twice with 200 μl per well of FACS buffer. For secondary staining, cells were spun down and resuspended in 100 μl per well of PE-conjugated goat anti-mouse IgG F(ab′)2 detection fragment (Dianova, Germany) diluted 1:100 in FACS buffer. Protected from light, the cell suspensions were incubated on ice for 1 hour. Plates were then centrifuged at 1,500 rpm and 4° C. for 3 minutes and washed three times with 200 μl per well of FACS buffer. Finally, cells were resuspended in 150 μl per well of FACS buffer and analyzed using a BD Accuri™ C6 Plus flow cytometer (Becton Dickinson, Germany).

| Binder | binding result (miR2-FL-WT-T7) | binding result (hiR2-FL-WT-FLAG) |
| --- | --- | --- |
| B1 | no binding (tested: 3 µg/ml) | – |
| B2 | – | binds |
| B3 | – | binds |
